B1: phage clone BB3 (peptide)
chain: PAFSRFWSDLSAGAH
notes: Tested as whole phage showing the peptide; also called hdm2 phage; hdm2-phage; not shown: minor coat protein III of the filamentous phage of the display library; the peptide stands at its N-terminus; phage stra
B2: phage clone 12/1 (peptide)
chain: MPRFMDYWEGLN
notes: Tested as whole phage showing the peptide; not shown: minor coat protein III of the filamentous phage of the display library; the peptide stands at its N-terminus; phage stra
B3: phage clone 15/1 (peptide)
chain: IDRAPTFRDHWFALV
notes: as for B2
B4: phage clone 12/2 (peptide)
chain: VQNFIDYWTQQF
notes: as for B2
B5: phage clone 15/5 (peptide)
chain: PRPALVFADYWETLY
notes: as for B2
B6: phage clone 12/5 (peptide)
chain: TGPAFTHYWATF
notes: as for B2

This assay deals with T1, GST-hdm2 (1-188) (S. japonicum; human, UniProt Q00987 1-188).
T1 construct: range 1-188; Fusion made in E. coli BL21 from pGEX-2T; GST, linker, hdm2 1-188 in this order; also called GST-hdm2 protein
T1 sequence (Q00987 1-188): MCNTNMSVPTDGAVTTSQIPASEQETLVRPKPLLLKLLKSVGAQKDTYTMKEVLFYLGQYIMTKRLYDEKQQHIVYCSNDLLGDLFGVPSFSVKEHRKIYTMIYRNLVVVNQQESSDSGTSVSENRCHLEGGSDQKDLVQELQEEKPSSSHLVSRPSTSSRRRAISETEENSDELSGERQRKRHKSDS
In words: single clone phage ELISA on coated antigen. On the procedure:
Amplified and purified phages from this round of biopanning are tested in an ELISA on the proteins used for their selection. For single clone screening E.coli K91 cells are infected with appropriate phage dilutions and spread on LB agar with 20 μg/ml tetracycline. Single colonies are transfered to wells of a 96-well tissue culture plate containing 200 μl 2×YT medium with 20 μg/ml tetracycline per well. Phage supernatant is collected for ELISA screening after a 24 hour incubation at 37° C. with shaking. ELISA positive clones are grown up as 2 ml bacterial cultures in 2×YT medium with 20 μg/ml tetracycline for 24 hours. Phage are PEG precipitated and redissolved in 200 μl TBS buffer. Phage DNA is extracted with phenol/chloroform and ethanol precipitated. The DNA pellet is redissolved in 10 μl water and used as template for sequencing (Sequenase).
100 μl phage suspension (supernatant or PEG concentrated phage) is diluted in PBST-M and added for three hours at 4° C. Bound phages are reacted with 100 μl HRP-labelled sheep anti-M13 antibody (Pharmacia) for one hour at room temperature followed by substrate development with 100 μl TMB/H202 (0.1 mg/ml TMB, 0.3% H₂O₂ in 0.1 M Na-acetate, pH 6.0) for 15 min. The reaction is stopped by adding 100 μl 1 M sulphuric acid to the substrate and the absorbance is measured at 450 nm. All washings between the incubation steps are done with tap water.
As for B1, the binding result is listed as “binds”.
For B2, the binding result is recorded as “binds”.
For the molecule B3, the binding result was “binds”.
As for B4, the binding result is on record as “binds”.
In the case of B5, the binding result is “binds”.
Turning to B6, the binding result is listed as “binds”.

The values are drawn from patent US20010018511A1 (CANCER RESEARCH CAMPAIGN TECHNOLOGY, published 2001).
